# B1: BBSome complex member BBS2 (Homo sapiens), Q9BXC9 (parent)
# chain: MLLPVFTLKLRHKISPRMVAIGRYDGTHPCLAAATQTGKVFIHNPHTRNQHVSASRVFQSPLESDVSLLSINQAVSCLTAGVLNPELGYDALLVGTQTNLLAYDVYNNSDLFYREVADGANAIVLGTLGDISSPLAIIGGNCALQGFNHEGSDLFWTVTGDNVNSLALCDFDGDGKKELLVGSEDFDIRVFKEDEIVAEMTETEIVTSLCPMYGSRFGYALSNGTVGVYDKTSRYWRIKSKNHAMSIHAFDLNSDGVNELITGWSNGKVDARSDRTGEVIFKDNFSSAIAGVVEGDYRMDGHIQLICCSVDGEIRGYLPGTAEMRGNLMDTSAEQDLIRELSQKKQNLLLELRNYEENAKAELASPLNEADGHRGIIPANTRLHTTLSVSLGNETQTAHTELRISTSNDTIIRAVLIFAEGIFTGESHVVHPSIHNLSSSICIPIVPPKDVPVDLHLKAFVGYRSSTQFHVFESTRQLPRFSMYALTSLDPASEPISYVNFTIAERAQRVVVWLGQNFLLPEDTHIQNAPFQVCFTSLRNGGHLHIKIKLSGEITINTDDIDLAGDIIQSMASFFAIEDLQVEADFPVYFEELRKVLVKVDEYHSVHQKLSADMADHSNLIRSLLVGAEDARLMRDMKTMKSRYMELYDLNRDLLNGYKIRCNNHTELLGNLKAVNQAIQRAGRLRVGKPKNQVITACRDAIRSNNINTLFKIMRVGTASS
# partner: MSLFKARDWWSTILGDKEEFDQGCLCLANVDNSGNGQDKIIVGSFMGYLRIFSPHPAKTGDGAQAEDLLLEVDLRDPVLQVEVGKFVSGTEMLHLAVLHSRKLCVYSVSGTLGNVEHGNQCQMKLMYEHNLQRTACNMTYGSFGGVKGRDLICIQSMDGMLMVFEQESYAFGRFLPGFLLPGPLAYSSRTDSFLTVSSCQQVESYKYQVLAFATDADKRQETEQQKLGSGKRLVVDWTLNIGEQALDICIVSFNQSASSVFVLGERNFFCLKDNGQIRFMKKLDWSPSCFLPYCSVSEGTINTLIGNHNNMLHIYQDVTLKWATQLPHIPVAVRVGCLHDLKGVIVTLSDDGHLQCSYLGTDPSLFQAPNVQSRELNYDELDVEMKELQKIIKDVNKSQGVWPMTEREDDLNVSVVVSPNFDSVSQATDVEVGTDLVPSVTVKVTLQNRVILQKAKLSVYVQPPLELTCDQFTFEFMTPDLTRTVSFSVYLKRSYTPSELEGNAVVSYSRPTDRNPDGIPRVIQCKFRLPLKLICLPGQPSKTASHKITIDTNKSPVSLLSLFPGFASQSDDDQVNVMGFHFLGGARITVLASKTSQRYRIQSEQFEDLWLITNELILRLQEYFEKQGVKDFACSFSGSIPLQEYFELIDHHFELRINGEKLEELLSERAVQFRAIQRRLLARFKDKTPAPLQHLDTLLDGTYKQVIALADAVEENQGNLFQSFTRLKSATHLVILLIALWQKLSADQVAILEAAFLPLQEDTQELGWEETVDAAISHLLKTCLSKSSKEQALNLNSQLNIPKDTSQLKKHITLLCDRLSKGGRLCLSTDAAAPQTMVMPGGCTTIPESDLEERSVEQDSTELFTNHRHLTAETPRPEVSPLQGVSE
# Variants of: B1
# Conditions: with pthb1_human BBS9, Q3SYG4
row,Variant,effect of a mutation on the interaction
1,Y644E,with no effect
2,Y644A,with no effect
3,Y644K,with no effect
4,K659E,with no effect
5,K659A,with no effect
6,R622A,with no effect
7,R622K,with no effect
8,R622E,with no effect
9,R661E,with no effect
10,R661K,with no effect
11,R661A,with no effect
12,A628E,with no effect
13,A628K,with no effect
14,D653K,with no effect
15,D653E,with no effect
16,D653A,with no effect
17,N656A,with no effect
18,N656K,with no effect
19,N656E,with no effect
20,A674K,with no effect
21,A674E,with no effect
22,K638A,with no effect
23,K638E,with no effect
24,R635K,with no effect

row,Variant,effect of a mutation on the interaction
1,R635A,with no effect
2,R635E,with no effect
3,Q677A,with no effect
4,Q677L,disrupting interaction strength
5,Q677K,with no effect
6,Q677E,with no effect
7,D630E,with no effect
8,D630A,with no effect
9,D630K,with no effect
10,E667K,with no effect
11,E667A,with no effect
12,R684K,with no effect
13,R684A,with no effect
14,R684E,with no effect
15,S623E,with no effect
16,S623A,with no effect
17,S623K,with no effect
18,T639A,with no effect
19,T639E,with no effect
20,T639K,with no effect
21,T666E,with no effect
22,T666A,with no effect
23,T666K,with no effect
24,V675K,with no effect

row,Variant,effect of a mutation on the interaction
1,V675E,with no effect
2,V675A,with no effect
3,M637A,with no effect
4,M637E,with no effect
5,M637K,with no effect
6,M634K,with no effect
7,M634E,with no effect
8,M634A,with no effect
9,L633E,with no effect
10,L633A,with no effect
11,L633K,with no effect
12,L668E,with no effect
13,L668A,with no effect
14,L668K,with no effect
15,L647E,with no effect
16,L647K,with no effect
17,L647A,with no effect
18,Q680K,with no effect
19,Q680A,with no effect
20,Q680E,with no effect
21,R681A,with no effect
22,R681K,with no effect
23,R681E,with no effect
24,E646K,with no effect

row,Variant,effect of a mutation on the interaction
1,E646A,with no effect
2,L672A,with no effect
3,L672E,with no effect
4,L672K,with no effect
5,R632A,with no effect
6,R632E,with no effect
7,R632K,with no effect
8,N664K,with no effect
9,N664A,with no effect
10,N664E,with no effect
11,A682E,with no effect
12,A682K,with no effect
13,L625E,with no effect
14,L625A,with no effect
15,L625K,with no effect
16,L655K,with no effect
17,L655E,with no effect
18,L655A,with no effect
19,Y648A,with no effect
20,Y648K,with no effect
21,Y648E,with no effect

# Source: IntAct's records for PubMed 29039417
